Test results from PMC7034832, “Systematic analysis of the binding behaviour of UHRF1 towards different methyl- and carboxylcytosine modification patterns at CpG dyads”.

Key:
[1] = biological target: T1, SRA domain of mouse UHRF1 (Mus musculus, UniProt Q8VDF2 419-628); assay: MST; MST: PBS-T (0.05% Tween-20), 50 nM labelled SRA, 20 min, room temperature; EMSA: 20 mM Tris-HCl pH 7.5, 150 mM NaCl, 0.5 mM EDTA, 1 mM DTT, 100 ng/ul BSA, 250 nM of each DNA, 4.69-300 nM protein, 30 min on ice, 6% PAGE 0.5x TBE; melting: 50 mM Tris-HCl pH 7.5, 0.5 mM b-ME, 10 mM EDTA; conditions: protein: recombinant, tags: His6, NT-647 (RED-tris-NTA) label in MST
T1 sequence: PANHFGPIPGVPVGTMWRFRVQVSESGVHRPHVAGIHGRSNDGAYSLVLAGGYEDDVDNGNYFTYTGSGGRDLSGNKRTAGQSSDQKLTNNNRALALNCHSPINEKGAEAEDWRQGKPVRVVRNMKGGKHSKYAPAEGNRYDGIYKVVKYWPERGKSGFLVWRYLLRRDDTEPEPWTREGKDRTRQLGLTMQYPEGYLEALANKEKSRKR

[2] = biological target: T2, GFP-mUHRF1 (Np95) (Mus musculus, UniProt Q8VDF2 1-782); assay: EMSA, two-colour competition; ATTO647N C-C' DNA as competitor; MST: PBS-T (0.05% Tween-20), 50 nM labelled SRA, 20 min, room temperature; EMSA: 20 mM Tris-HCl pH 7.5, 150 mM NaCl, 0.5 mM EDTA, 1 mM DTT, 100 ng/ul BSA, 250 nM of each DNA, 4.69-300 nM protein, 30 min on ice, 6% PAGE 0.5x TBE; melting: 50 mM Tris-HCl pH 7.5, 0.5 mM b-ME, 10 mM EDTA; conditions: protein: recombinant; tags: GFP (N-terminal by name); label: ATTO550 (EMSA)
T2 sequence: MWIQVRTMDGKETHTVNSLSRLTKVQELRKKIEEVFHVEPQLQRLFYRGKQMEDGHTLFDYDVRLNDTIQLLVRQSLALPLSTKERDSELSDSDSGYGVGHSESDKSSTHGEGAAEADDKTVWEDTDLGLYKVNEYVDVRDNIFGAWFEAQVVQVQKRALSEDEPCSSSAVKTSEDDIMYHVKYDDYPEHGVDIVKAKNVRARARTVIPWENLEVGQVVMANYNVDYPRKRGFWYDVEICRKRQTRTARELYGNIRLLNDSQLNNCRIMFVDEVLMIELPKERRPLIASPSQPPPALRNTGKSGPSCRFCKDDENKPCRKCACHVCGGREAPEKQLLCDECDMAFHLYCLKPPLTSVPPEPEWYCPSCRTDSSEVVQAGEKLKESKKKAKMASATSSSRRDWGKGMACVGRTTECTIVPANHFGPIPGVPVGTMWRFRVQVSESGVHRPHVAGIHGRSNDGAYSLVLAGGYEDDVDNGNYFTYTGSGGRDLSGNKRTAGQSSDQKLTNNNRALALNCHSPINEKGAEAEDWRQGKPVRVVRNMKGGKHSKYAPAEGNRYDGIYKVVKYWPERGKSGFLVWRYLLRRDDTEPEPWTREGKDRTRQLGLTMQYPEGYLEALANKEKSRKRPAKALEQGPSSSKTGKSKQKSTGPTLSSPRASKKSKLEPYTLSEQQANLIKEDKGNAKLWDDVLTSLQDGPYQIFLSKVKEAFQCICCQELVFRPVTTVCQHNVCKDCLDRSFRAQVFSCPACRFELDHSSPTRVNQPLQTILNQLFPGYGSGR

[3] = biological target: T3, mUHRF2-GFP (Mus musculus, UniProt Q7TMI3 1-803); assay: as above; conditions: protein: recombinant; tags: GFP (C-terminal by name); label: ATTO550 (EMSA)
T3 sequence: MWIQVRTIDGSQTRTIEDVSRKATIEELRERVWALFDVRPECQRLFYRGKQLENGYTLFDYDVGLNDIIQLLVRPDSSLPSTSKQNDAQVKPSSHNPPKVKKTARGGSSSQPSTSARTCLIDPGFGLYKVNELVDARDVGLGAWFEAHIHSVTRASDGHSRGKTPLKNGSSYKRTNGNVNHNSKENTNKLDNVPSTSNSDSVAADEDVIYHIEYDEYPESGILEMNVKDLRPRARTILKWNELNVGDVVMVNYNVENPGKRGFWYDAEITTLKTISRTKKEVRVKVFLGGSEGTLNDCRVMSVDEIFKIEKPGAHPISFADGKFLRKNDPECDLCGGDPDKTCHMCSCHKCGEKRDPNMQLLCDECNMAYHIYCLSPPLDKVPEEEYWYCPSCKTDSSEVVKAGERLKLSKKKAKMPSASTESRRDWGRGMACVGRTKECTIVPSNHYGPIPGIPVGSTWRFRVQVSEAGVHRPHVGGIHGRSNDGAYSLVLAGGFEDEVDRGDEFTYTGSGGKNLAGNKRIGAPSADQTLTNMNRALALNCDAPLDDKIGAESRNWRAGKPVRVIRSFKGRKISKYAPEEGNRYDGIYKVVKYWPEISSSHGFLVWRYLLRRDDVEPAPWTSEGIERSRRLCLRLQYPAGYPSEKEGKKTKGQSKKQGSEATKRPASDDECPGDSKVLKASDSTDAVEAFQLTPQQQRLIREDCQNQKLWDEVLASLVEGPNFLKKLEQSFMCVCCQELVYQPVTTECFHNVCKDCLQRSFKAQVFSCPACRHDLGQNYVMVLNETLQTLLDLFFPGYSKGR

B1: 42 bp C-C' (dsDNA)
DNA 1: GGATGATGACTCTTCTGGTCCGGATGGTAGTTAAGTGTTGAG
DNA 2: CTCAACACTTAACTACCATCCGGACCAGAAGAGTCATCATCC
modifications: none
Kd ([1]; label: ATTO550 or ATTO647N (EMSA)): 1100 ± 150 nM

B2: 42 bp mC-C' (dsDNA)
DNA 1: GGATGATGACTCTTCTGGTCCGGATGGTAGTTAAGTGTTGAG
DNA 2: CTCAACACTTAACTACCATCCGGACCAGAAGAGTCATCATCC
modifications: 5-methylcytosine at central CpG, one strand
binding signal [2]: ~1.5 fold vs C-C'
Kd ([1]; label: ATTO550 (EMSA)): 750 ± 110 nM

B3: 42 bp caC-C' (dsDNA)
DNA 1: GGATGATGACTCTTCTGGTCCGGATGGTAGTTAAGTGTTGAG
DNA 2: CTCAACACTTAACTACCATCCGGACCAGAAGAGTCATCATCC
modifications: 5-carboxylcytosine at central CpG, one strand
Kd ([1]; label: ATTO550 (EMSA)): 1100 ± 290 nM

B4: 42 bp caC-caC' (dsDNA)
DNA 1: GGATGATGACTCTTCTGGTCCGGATGGTAGTTAAGTGTTGAG
DNA 2: CTCAACACTTAACTACCATCCGGACCAGAAGAGTCATCATCC
modifications: 5-carboxylcytosine at central CpG, both strands
binding signal [2]: ~2 fold vs C-C'
binding signal [3]: ~2 fold vs C-C'
Kd ([1]; label: ATTO550 (EMSA)): 230 ± 50 nM

B5: 42 bp mC-caC' (dsDNA)
DNA 1: GGATGATGACTCTTCTGGTCCGGATGGTAGTTAAGTGTTGAG
DNA 2: CTCAACACTTAACTACCATCCGGACCAGAAGAGTCATCATCC
modifications: 5-methylcytosine on one strand, 5-carboxylcytosine on the other at central CpG
Kd [1]: 390 ± 110 nM
